Laboratory results from publication PMC11765575 (International Journal of Molecular Sciences, 2025).

Target: T1, osteocalcin C-terminal 7-residue peptide BGP-C7 (human)
T1 construct: C-terminal 7 residues of human osteocalcin (bone Gla protein, BGP), printed as NH2-RRFYGPV-COOH; Free N- and C-termini as printed (NH2-RRFYGPV-COOH); also called antigen peptide; osteocalcin C-terminal peptide
T1 chain: RRFYGPV
Assay: crystal structure; KTM219 Fab with three molar excess BGP-C7, complex purified by gel filtration; crystallised at 20 °C, sitting drop, 0.07 M citric acid, 0.03 M Bis-tris propane (pH 3.4), 16% w/v PEG 3350, microseeding; refined to 2.30 Å
Conditions: both partners purified

- binding result: binds
B1: Fab fragment of anti-osteocalcin C-terminal peptide antibody KTM219 (Fab, V domains shown)
VH: QVKLQQSGAEFVKAGASVKLSCKTSGYTFNNYWIHWVKQSPGQGLEWIGEIDPSDGYSNYNQKFKGKATLTVDKSSSTAYMHLNSLTSEDSAVYYCTSSTSVGGSWGQGTTVTVSS
VL: DIELTQSPLSLPVSLGDQASISCTSSQSLLHSNGDTYLHWYLQKPGQSPKLLIYTLSNRFSGVPDRFSGSGSGTDFTLKISRVEAADLGIYFCSQTTHVPYTFGGGTKLEIK
notes: heavy chain (VH-CH1) of KTM219 Fab; light chain (VL-CL) of KTM219 Fab; also called KTM219 Fab
